Experimental data published in IntAct's records for PubMed 28062662.

B1: Glutaryl-CoA dehydrogenase, mitochondrial (Homo sapiens), Q92947 (parent)
chain: MALRGVSVRLLSRGPGLHVLRTWVSSAAQTEKGGRTQSQLAKSSRPEFDWQDPLVLEEQLTTDEILIRDTFRTYCQERLMPRILLANRNEVFHREIISEMGELGVLGPTIKGYGCAGVSSVAYGLLARELERVDSGYRSAMSVQSSLVMHPIYAYGSEEQRQKYLPQLAKGELLGCFGLTEPNSGSDPSSMETRAHYNSSNKSYTLNGTKTWITNSPMADLFVVWARCEDGCIRGFLLEKGMRGLSAPRIQGKFSLRASATGMIIMDGVEVPEENVLPGASSLGGPFGCLNNARYGIAWGVLGASEFCLHTARQYALDRMQFGVPLARNQLIQKKLADMLTEITLGLHACLQLGRLKDQDKAAPEMVSLLKRNNCGKALDIARQARDMLGGNGISDEYHVIRHAMNLEAVNTYEGTHDIHALILGRAITGIQAFTASK
partner: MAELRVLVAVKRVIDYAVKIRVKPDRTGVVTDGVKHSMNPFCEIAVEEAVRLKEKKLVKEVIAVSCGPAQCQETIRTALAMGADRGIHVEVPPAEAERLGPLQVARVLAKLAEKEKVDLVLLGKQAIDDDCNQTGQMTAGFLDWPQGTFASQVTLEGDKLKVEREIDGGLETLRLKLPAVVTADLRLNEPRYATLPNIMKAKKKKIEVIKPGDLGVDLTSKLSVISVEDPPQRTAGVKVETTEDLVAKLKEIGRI
B2: Glutaryl-CoA dehydrogenase, mitochondrial (Homo sapiens), Q92947 (parent)
chain: B1 chain
partner: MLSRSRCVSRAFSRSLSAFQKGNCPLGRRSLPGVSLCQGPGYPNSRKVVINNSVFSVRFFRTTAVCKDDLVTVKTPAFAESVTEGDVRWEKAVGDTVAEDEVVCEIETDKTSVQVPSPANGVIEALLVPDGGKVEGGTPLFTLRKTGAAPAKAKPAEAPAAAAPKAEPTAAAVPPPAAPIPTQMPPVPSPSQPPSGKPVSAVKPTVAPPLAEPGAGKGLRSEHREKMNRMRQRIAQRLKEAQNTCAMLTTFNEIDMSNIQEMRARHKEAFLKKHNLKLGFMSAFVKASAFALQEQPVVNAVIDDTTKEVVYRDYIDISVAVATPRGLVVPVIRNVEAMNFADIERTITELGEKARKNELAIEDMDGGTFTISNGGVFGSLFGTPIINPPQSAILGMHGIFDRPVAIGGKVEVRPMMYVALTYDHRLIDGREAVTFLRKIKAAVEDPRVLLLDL

Variants of: B1
Conditions: with etfb_human ETFB

| Variant | effect of a mutation on the interaction |
| --- | --- |
| MALRGVSVRLLSRGPGLHVLRTWVSSAAQTEKGGRTQSQLAKSSRPEFDWQDPLVLEEQLTTDEILIRDTFRTYCQERLMPRILLANRNEVFHREIISEMGELGVLGPTIKGYGCAGVSSVAYGLLARELERVDSGYRSAMSVQSSLVMHPIYAYGSEEQRQKYLPQLAKGELLGCFGLTEPNSGSDPSSMETRAHYNSSNKSYTLNGTKTWITNSPMADLFVVWARCEDGCIRGFLLEKGMRGLSAPRIQGKFSLRASATGMIIMDGVEVPEENVLSGASSLGGPFGCLNNARYGIAWGVLGASEFCLHTARQYALDRMQFGVPLARNQLIQKKLADMLTEITLGLHACLQLGRLKDQDKAAPEMVSLLKRNNCGKALDIARQARDMLGGNGISDEYHVIRHAMNLEAVNTYEGTHDIHALILGRAITGIQAFTASK [P278S] | increasing interaction strength |
| MALRGVSVRLLSRGPGLHVLRTWVSSAAQTEKGGRTQSQLAKSSRPEFDWQDPLVLEEQLTTDEILIRDTFRTYCQERLMPRILLANRNEVFHREIISEMGELGVLGPTIKGYGCAGVSSVAYGLLARELERVDSGYRSAMSVQSSLVMHPIYAYGSEEQRQKYLPQLAKGELLGCFGLTEPNSGSDPSSMETRAHYNSSNKSYTLNGTKTWITNSPMADLFVVWARCEDGCIRGFLLEKGMRCLSAPRIQGKFSLRASATGMIIMDGVEVPEENVLPGASSLGGPFGCLNNARYGIAWGVLGASEFCLHTARQYALDRMQFGVPLARNQLIQKKLADMLTEITLGLHACLQLGRLKDQDKAAPEMVSLLKRNNCGKALDIARQARDMLGGNGISDEYHVIRHAMNLEAVNTYEGTHDIHALILGRAITGIQAFTASK [G244C] | increasing interaction strength |
| MALRGVSVRLLSRGPGLHVLRTWVSSAAQTEKGGRTQSQLAKSSRPEFDWQDPLVLEEQLTTDEILIRDTFRTYCQERLMPRILLANRNEVFHREIISEMGELGVLGPTIKGYGCAGVSSVAYGLLARELERVDSGYRSAMSVQSSLVMHPIYAYGSEEQRQKYLPQLAKGELLGCFGLTEPNSGSDPSSMETRAHYNSSNKSYTLNGTKTWITNSPMADLFVVWARCEDGCIRGFLLEKGMRGLSAPRIQGKFSLRASATGVIIMDGVEVPEENVLPGASSLGGPFGCLNNARYGIAWGVLGASEFCLHTARQYALDRMQFGVPLARNQLIQKKLADMLTEITLGLHACLQLGRLKDQDKAAPEMVSLLKRNNCGKALDIARQARDMLGGNGISDEYHVIRHAMNLEAVNTYEGTHDIHALILGRAITGIQAFTASK [M263V] | increasing interaction strength |
| MALRGVSVRLLSRGPGLHVLRTWVSSAAQTEKGGRTQSQLAKSSRPEFDWQDPLVLEEQLTTDEILIRDTFRTYCQERLMPRILLANRNEVFHREIISEMGELGVLGPTIKGYGCAGVSSVAYGLLARELERVDSGYRSAMSVQSSLVMHPIYAYGSEEQRQKYLPQLAKGELLGCFGLTEPNSGSDPSSMETRAHYNSSNKSYTLNGTKTWITNSPMADLFVVWARCEDGCIRGFLLEKGMRGLSALRIQGKFSLRASATGMIIMDGVEVPEENVLPGASSLGGPFGCLNNARYGIAWGVLGASEFCLHTARQYALDRMQFGVPLARNQLIQKKLADMLTEITLGLHACLQLGRLKDQDKAAPEMVSLLKRNNCGKALDIARQARDMLGGNGISDEYHVIRHAMNLEAVNTYEGTHDIHALILGRAITGIQAFTASK [P248L] | increasing interaction strength |
| MALRGVSVRLLSRGPGLHVLRTWVSSAAQTEKGGRTQSQLAKSSRPEFDWQDPLVLEEQLTTDEILIRDTFRTYCQERLMPRILLANRNEVFHREIISEMGELGVLGPTIKGYGCAGVSSVAYGLLARELERVDSGYRSAMSVQSSLVMHPIYAYGSEEQRQKYLPQLAKGELLGCFGLTEPNSGSDPSSMETRAHYNSSNKSYTLNGTKTWITNSPMADLFVVWARCEDGCIRGFLLEKGMRGLSAPRIQGKFSLRASATGMIIMDGVEVPEENVLPGASSLGGPFGCLNNARYGIAWGVLGASEFCLHTARQYALDRMQFGVPLARNQLIQKKLADMLTEITLGLHACLQLGHLKDQDKAAPEMVSLLKRNNCGKALDIARQARDMLGGNGISDEYHVIRHAMNLEAVNTYEGTHDIHALILGRAITGIQAFTASK [R355H] | increasing interaction strength |

Variants of: B2
Conditions: with odo2_human DLST

| Variant | effect of a mutation on the interaction |
| --- | --- |
| MALRGVSVRLLSRGPGLHVLRTWVSSAAQTEKGGRTQSQLAKSSRPEFDWQDPLVLEEQLTTDEILIRDTFRTYCQERLMPRILLANRNEVFHLEIISEMGELGVLGPTIKGYGCAGVSSVAYGLLARELERVDSGYRSAMSVQSSLVMHPIYAYGSEEQRQKYLPQLAKGELLGCFGLTEPNSGSDPSSMETRAHYNSSNKSYTLNGTKTWITNSPMADLFVVWARCEDGCIRGFLLEKGMRGLSAPRIQGKFSLRASATGMIIMDGVEVPEENVLPGASSLGGPFGCLNNARYGIAWGVLGASEFCLHTARQYALDRMQFGVPLARNQLIQKKLADMLTEITLGLHACLQLGRLKDQDKAAPEMVSLLKRNNCGKALDIARQARDMLGGNGISDEYHVIRHAMNLEAVNTYEGTHDIHALILGRAITGIQAFTASK [R94L] | increasing interaction strength |
| MALRGVSVRLLSRGPGLHVLRTWVSSAAQTEKGGRTQSQLAKSSRPEFDWQDPLVLEEQLTTDEILIRDTFRTYCQERLMPRILLANRNEVFHREIISEMGELGVLGPTIKGYGCARVSSVAYGLLARELERVDSGYRSAMSVQSSLVMHPIYAYGSEEQRQKYLPQLAKGELLGCFGLTEPNSGSDPSSMETRAHYNSSNKSYTLNGTKTWITNSPMADLFVVWARCEDGCIRGFLLEKGMRGLSAPRIQGKFSLRASATGMIIMDGVEVPEENVLPGASSLGGPFGCLNNARYGIAWGVLGASEFCLHTARQYALDRMQFGVPLARNQLIQKKLADMLTEITLGLHACLQLGRLKDQDKAAPEMVSLLKRNNCGKALDIARQARDMLGGNGISDEYHVIRHAMNLEAVNTYEGTHDIHALILGRAITGIQAFTASK [G117R] | increasing interaction strength |
| MALRGVSVRLLSRGPGLHVLRTWVSSAAQTEKGGRTQSQLAKSSRPEFDWQDPLVLEEQLTTDEILIRDTFRTYCQERLMPRILLANRNEVFHREIISEMGELGVLGPTIKGHGCAGVSSVAYGLLARELERVDSGYRSAMSVQSSLVMHPIYAYGSEEQRQKYLPQLAKGELLGCFGLTEPNSGSDPSSMETRAHYNSSNKSYTLNGTKTWITNSPMADLFVVWARCEDGCIRGFLLEKGMRGLSAPRIQGKFSLRASATGMIIMDGVEVPEENVLPGASSLGGPFGCLNNARYGIAWGVLGASEFCLHTARQYALDRMQFGVPLARNQLIQKKLADMLTEITLGLHACLQLGRLKDQDKAAPEMVSLLKRNNCGKALDIARQARDMLGGNGISDEYHVIRHAMNLEAVNTYEGTHDIHALILGRAITGIQAFTASK [Y113H] | decreasing interaction strength |
| MALRGVSVRLLSRGPGLHVLRTWVSSAAQTEKGGRTQSQLAKSSRPEFDWQDPLVLEEQLTTDEILIRDTFRTYCQERLMPRILLANRNKVFHREIISEMGELGVLGPTIKGYGCAGVSSVAYGLLARELERVDSGYRSAMSVQSSLVMHPIYAYGSEEQRQKYLPQLAKGELLGCFGLTEPNSGSDPSSMETRAHYNSSNKSYTLNGTKTWITNSPMADLFVVWARCEDGCIRGFLLEKGMRGLSAPRIQGKFSLRASATGMIIMDGVEVPEENVLPGASSLGGPFGCLNNARYGIAWGVLGASEFCLHTARQYALDRMQFGVPLARNQLIQKKLADMLTEITLGLHACLQLGRLKDQDKAAPEMVSLLKRNNCGKALDIARQARDMLGGNGISDEYHVIRHAMNLEAVNTYEGTHDIHALILGRAITGIQAFTASK [E90K] | increasing interaction strength |
| MALRGVSVRLLSRGPGLHVLRTWVSSAAQTEKGGRTQSQLAKSSRPEFDCQDPLVLEEQLTTDEILIRDTFRTYCQERLMPRILLANRNEVFHREIISEMGELGVLGPTIKGYGCAGVSSVAYGLLARELERVDSGYRSAMSVQSSLVMHPIYAYGSEEQRQKYLPQLAKGELLGCFGLTEPNSGSDPSSMETRAHYNSSNKSYTLNGTKTWITNSPMADLFVVWARCEDGCIRGFLLEKGMRGLSAPRIQGKFSLRASATGMIIMDGVEVPEENVLPGASSLGGPFGCLNNARYGIAWGVLGASEFCLHTARQYALDRMQFGVPLARNQLIQKKLADMLTEITLGLHACLQLGRLKDQDKAAPEMVSLLKRNNCGKALDIARQARDMLGGNGISDEYHVIRHAMNLEAVNTYEGTHDIHALILGRAITGIQAFTASK [W50C] | increasing interaction strength |
| MALRGVSVRLLSRGPGLHVLRTWVSSAAQTEKGGRTQSQLAKSSRPEFDWQDPLVLEEQLTTDEILIRDTFRTYCQERLMPRILLANRNEVFHREIISEMRELGVLGPTIKGYGCAGVSSVAYGLLARELERVDSGYRSAMSVQSSLVMHPIYAYGSEEQRQKYLPQLAKGELLGCFGLTEPNSGSDPSSMETRAHYNSSNKSYTLNGTKTWITNSPMADLFVVWARCEDGCIRGFLLEKGMRGLSAPRIQGKFSLRASATGMIIMDGVEVPEENVLPGASSLGGPFGCLNNARYGIAWGVLGASEFCLHTARQYALDRMQFGVPLARNQLIQKKLADMLTEITLGLHACLQLGRLKDQDKAAPEMVSLLKRNNCGKALDIARQARDMLGGNGISDEYHVIRHAMNLEAVNTYEGTHDIHALILGRAITGIQAFTASK [G101R] | decreasing interaction strength |
| MALRGVSVRLLSRGPGLHVLRTWVSSAAQTEKGGRTQSQLAKSSRPEFDWQDPLVLEEQLTTDEILIRDTFRTYCQERLMPRILLANCNEVFHREIISEMGELGVLGPTIKGYGCAGVSSVAYGLLARELERVDSGYRSAMSVQSSLVMHPIYAYGSEEQRQKYLPQLAKGELLGCFGLTEPNSGSDPSSMETRAHYNSSNKSYTLNGTKTWITNSPMADLFVVWARCEDGCIRGFLLEKGMRGLSAPRIQGKFSLRASATGMIIMDGVEVPEENVLPGASSLGGPFGCLNNARYGIAWGVLGASEFCLHTARQYALDRMQFGVPLARNQLIQKKLADMLTEITLGLHACLQLGRLKDQDKAAPEMVSLLKRNNCGKALDIARQARDMLGGNGISDEYHVIRHAMNLEAVNTYEGTHDIHALILGRAITGIQAFTASK [R88C] | increasing interaction strength |
| MALRGVSVRLLSRGPGLHVLRTWVSSAAQTEKGGRTQSQLAKSSRPEFDWQDPLVLEEQLTTDEILIRDTFRTYCQERLMPRILLANRNEVFHREIISEMGELGVLGPTIKGYGYAGVSSVAYGLLARELERVDSGYRSAMSVQSSLVMHPIYAYGSEEQRQKYLPQLAKGELLGCFGLTEPNSGSDPSSMETRAHYNSSNKSYTLNGTKTWITNSPMADLFVVWARCEDGCIRGFLLEKGMRGLSAPRIQGKFSLRASATGMIIMDGVEVPEENVLPGASSLGGPFGCLNNARYGIAWGVLGASEFCLHTARQYALDRMQFGVPLARNQLIQKKLADMLTEITLGLHACLQLGRLKDQDKAAPEMVSLLKRNNCGKALDIARQARDMLGGNGISDEYHVIRHAMNLEAVNTYEGTHDIHALILGRAITGIQAFTASK [C115Y] | increasing interaction strength |
